Assay [1] has as its target T1, Recombinant human B7-H4 protein (R&D Systems #6576-B7-050) (human, UniProt Q7Z7D3 29-258).
T1 construct: Bought protein
T1 sequence: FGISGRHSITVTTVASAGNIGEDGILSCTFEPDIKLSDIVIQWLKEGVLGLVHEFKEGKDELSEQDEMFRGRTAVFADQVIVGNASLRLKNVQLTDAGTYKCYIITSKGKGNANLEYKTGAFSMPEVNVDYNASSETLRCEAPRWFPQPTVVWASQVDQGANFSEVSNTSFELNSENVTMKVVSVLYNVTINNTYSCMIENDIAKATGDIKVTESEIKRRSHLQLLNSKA
As to the kind of experiment: ELISA, coated recombinant human B7-H4.

The target of assay [2] is T2, Human B7-H4 on the cell surface (MX-1, HCC1569, CAMA-1 cells); HEK-293 cells stably transfected with human … (human, UniProt Q7Z7D3 25-282).
T2 construct: The cell line of each result is named under assay or readout; also called cell surface B7-H4
T2 sequence: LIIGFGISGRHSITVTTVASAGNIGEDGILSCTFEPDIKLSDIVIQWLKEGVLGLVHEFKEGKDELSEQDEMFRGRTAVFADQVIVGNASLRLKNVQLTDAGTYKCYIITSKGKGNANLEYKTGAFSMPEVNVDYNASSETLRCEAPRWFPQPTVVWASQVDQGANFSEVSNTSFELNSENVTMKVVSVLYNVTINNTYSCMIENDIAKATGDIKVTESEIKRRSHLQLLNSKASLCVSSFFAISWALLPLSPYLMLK
As to the kind of experiment: flow cytometry, MX-1 cells.

In assay [3] the target is T3, Mouse B7-H4 protein (Creative Biomart; VTCN1-1519R) (mouse, UniProt Q7TSP5 25-257).
T3 construct: Bought protein
T3 sequence (looked up): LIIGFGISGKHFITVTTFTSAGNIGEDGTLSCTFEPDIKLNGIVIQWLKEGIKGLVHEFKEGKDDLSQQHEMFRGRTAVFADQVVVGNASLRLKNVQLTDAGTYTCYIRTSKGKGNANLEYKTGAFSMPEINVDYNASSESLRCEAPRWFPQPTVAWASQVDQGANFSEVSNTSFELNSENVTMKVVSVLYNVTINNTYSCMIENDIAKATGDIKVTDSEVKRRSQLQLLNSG
As to the kind of experiment: ELISA, coated mouse B7-H4, mean of two studies.

Assay [4] has as its target T2, Human B7-H4 on the cell surface (MX-1, …). Kind of assay: flow cytometry, MX-1 cells, mean of two experiments.
Assay [5] concerns the target T4, Rat B7-H4 protein (R&D Systems 10085-B7) (rat, UniProt Q501W4 29-257, limits assumed).
T4 construct: Bought protein
T4 sequence (looked up): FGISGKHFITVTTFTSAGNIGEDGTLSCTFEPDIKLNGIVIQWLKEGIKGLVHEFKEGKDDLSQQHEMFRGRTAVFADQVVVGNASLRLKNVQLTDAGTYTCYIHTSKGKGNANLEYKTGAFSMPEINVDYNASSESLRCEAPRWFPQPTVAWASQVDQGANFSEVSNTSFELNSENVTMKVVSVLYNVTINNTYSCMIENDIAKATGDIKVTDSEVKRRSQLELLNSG
As to the kind of experiment: ELISA, coated rat B7-H4, mean of two studies.

The target in assay [6] is T1, Recombinant human B7-H4 protein (R&D …). Kind of assay: ELISA, coated human B7-H4, mean of two studies.
Assay [7] has the same target. Kind of assay: ELISA, coated recombinant human B7-H4. The source holds these as a separate data set.
Assay [8] addresses T2, Human B7-H4 on the cell surface (MX-1, …). As to the kind of experiment: flow cytometry, HEK-293 cells stably transfected with human B7-H4, mean of two experiments.
Assay [9] deals with T1, Recombinant human B7-H4 protein (R&D …). Kind of assay: ELISA, coated recombinant human B7-H4. This is another data set of the same source.
Assay [10] addresses T5, Monkey B7-H4 protein (Creative Biomart; VTCN1-1519R) (monkey).
T5 construct: Bought protein
As to the kind of experiment: ELISA, coated monkey B7-H4, mean of two studies.

Bounds are passed on as bounds.

B1: Palivizumab (antibody, V domains shown)
VH: QVTLRESGPALVKPTQTLTLTCTFSGFSLSTSGMSVGWIRQPPGKALEWLADIWWDDKKDYNPSLKSRLTISKDTSKNQVVLKVTNMDPADTATYYCARSMITNWYFDVWGAGTTVTVSS
VL: DIQMTQSPSTLSASVGDRVTITCKCQLSVGYMHWYQQKPGKAPKLLIYDTSKLASGVPSRFSGSGSGTEFTLTISSLQPDDFATYYCFQGSGYPFTFGGGTKLEIK
For B1, the EC50 in assay [1] was more than 100 nM; in [2], more than 200 nM; in [3] it was more than 100 nM; in assay [4] it was more than 100 nM; in assay [5] it was more than 100 nM; in assay [6], more than 100 nM. The EC50 in assay [7], in [8], in [9] and in assay [10] was more than 100 nM throughout.

Values taken from US20240269306A1 (MERSANA THERAPEUTICS, published 2024).
